Where two headings read alike, the source gives them in different places. No end group written: not given here.
Columns and labels:
FRET or BRET [1] = biological target: the molecule itself; assay: FRET or BRET
FRET or BRET [2] = biological target: the molecule itself; assay: FRET or BRET; remark: listed apart in the source

Row | Protein | stoichiometry N (FRET or BRET [1]) | stoichiometry N (FRET or BRET [2])
1 | YFP-phospholamban (PLB) (natural protein, UniProt P26678 1-52, looked up, cysteine pairing not given here) {YFP}-MEKVQYLTRSAIRRASTIEMPQQARQKLQNLFINFCLILICLLLICIIVMLL | > 2 | 2
2 | YFP-ALN (another-regulin) (natural protein, UniProt Q8WVX3 1-66, looked up) MEVDAPGVDGRDGLRERRGFSEGGRQNFDVRPQSGANGLPKHSYWLDLWLFILFDVVVFLFVYFLP | > 2 | 2
3 | MTGKNWILISTTTPKSLEDEIVGRLLKILFVIFVDLISIIYVVITS (natural protein, UniProt P0DMT0 1-46, looked up) [YFP-myoregulin (MLN)] | > 2 | 2
4 | YFP-endoregulin (ELN) (natural protein, UniProt P0DI80 1-62, looked up) MDQLVFKETIWNDAFWQNPWDQGGLAVIILFITAVLLLILFAIVFGLLTSTENTQCEAGEEE | > 2 | 2

Reference: publication PMC6885550 (Journal of molecular biology, 2019)
